Values quoted from earlier work as cited in paper PMC5319824.
Several values for one entry are separate records, joined by “and”; a condition that tells them apart may be missing. Equal values may be shown once. Read-outs that look alike come from different tables or passages of the source.

Experiments:
FtsZ (Escherichia coli) [1] = biological target: FtsZ (Escherichia coli) (UniProt P0A9A6)
FtsZ (Escherichia coli) [2] = biological target: FtsZ (Escherichia coli) (UniProt P0A9A6); remark: listed apart in the source
FtsZ (Escherichia coli) [3] = biological target: FtsZ (Escherichia coli) (UniProt P0A9A6); remark: listed apart in the source

Sequence of FtsZ (Escherichia coli) (P0A9A6 whole entry): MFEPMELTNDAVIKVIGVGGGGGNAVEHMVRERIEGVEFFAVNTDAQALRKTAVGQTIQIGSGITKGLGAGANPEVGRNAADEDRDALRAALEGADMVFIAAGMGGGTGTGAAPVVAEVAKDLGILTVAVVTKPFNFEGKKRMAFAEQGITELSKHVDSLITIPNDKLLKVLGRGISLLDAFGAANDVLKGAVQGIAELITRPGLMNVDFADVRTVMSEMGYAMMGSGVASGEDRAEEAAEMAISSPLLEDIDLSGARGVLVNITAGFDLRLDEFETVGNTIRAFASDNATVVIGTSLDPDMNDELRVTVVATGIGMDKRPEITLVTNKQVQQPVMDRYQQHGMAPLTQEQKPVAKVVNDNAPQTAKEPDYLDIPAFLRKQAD
Sequence of FtsA (P0ABH0 whole entry): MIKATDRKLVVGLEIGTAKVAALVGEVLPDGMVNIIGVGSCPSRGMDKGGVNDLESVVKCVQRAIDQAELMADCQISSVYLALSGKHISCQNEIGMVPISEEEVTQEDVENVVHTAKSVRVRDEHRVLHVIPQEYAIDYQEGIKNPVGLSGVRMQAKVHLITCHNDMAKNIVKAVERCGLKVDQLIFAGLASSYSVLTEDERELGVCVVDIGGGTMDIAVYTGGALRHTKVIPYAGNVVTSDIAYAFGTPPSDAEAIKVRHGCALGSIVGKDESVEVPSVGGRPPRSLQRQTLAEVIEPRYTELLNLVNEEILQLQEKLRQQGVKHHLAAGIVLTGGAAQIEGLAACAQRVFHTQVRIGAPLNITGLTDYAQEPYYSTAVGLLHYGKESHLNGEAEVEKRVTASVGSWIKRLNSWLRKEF

Kd (FtsZ (Escherichia coli) [1]) | Substance | Kd (FtsZ (Escherichia coli) [2]) | Kd (FtsZ (Escherichia coli) [3])
> 40 µM | FtsA (from UniProt P0ABH0) |  | 
 | ZipA (from UniProt P77173) | 0.4 µM | 30 µM and 140 µM
